Common to all, as to test: ELISA on coated peptide-OVA conjugate, FCA control egg yolk sample, dilution not given
Assay [1] has as its target IL-10 Peptide #1 (SEQ ID NO: 1) conjugated to hen ovalbumin (avian animals, such as chickens, quail, and turkeys; hen) (UniProt P01012).
Assay [2] addresses IL-10 Peptide #3 (SEQ ID NO: 7) conjugated to hen ovalbumin (avian animals, such as chickens, quail, and turkeys; hen) (UniProt P01012).
For assay [3], the target named is IL-10 Peptide #4 (SEQ ID NO: 10) conjugated to hen ovalbumin (avian animals, such as chickens, quail, and turkeys; hen) (UniProt P01012).

As for FCA control egg antibody, the optical density in assay [1] was determined as 0.56 OD 450 nm; in assay [2], 0.499 OD 450 nm; in assay [3], 0.6 OD 450 nm.

The values above are taken from patent US20170044251A1.
